How the values were obtained:
Test in all cases: cell-based or functional assay
[1] = target: HIV-1 Env of isolate 94UG103 (pseudovirus) (HIV-1)
[2] = target: HIV-1 93UG077 Env (HIV-1)
[3] = target: HIV-1 94UG103 Env (HIV-1)
HIV-1 JRFL Env (HIV-1) = target: HIV-1 JRFL Env (HIV-1)
[4] = target: HIV-1 MGRM-A-010 Env (HIV-1)
[5] = target: HIV-1 MGRM-C-027 Env (HIV-1)
[6] = target: HIV-1 92UG024 Env (pseudovirus) (HIV-1 isolate 92UG024 (clade D))
[7] = target: HIV-1 93IN905 Env (pseudovirus) (HIV-1 isolate 93IN905 (clade C))
[8] = target: HIV-1 APV13 Env (pseudovirus) (HIV-1 isolate APV13 (clade B))
[9] = target: HIV-1 APV17 Env (pseudovirus) (HIV-1 isolate APV17 (clade B))
[10] = target: HIV-1 APV6 Env (pseudovirus) (HIV-1 isolate APV6 (clade B))
[11] = target: HIV-1 92TH021 envelope glycoprotein (Env) on pseudovirus (HIV-1 isolate 92TH021 (clade AE))
[12] = target: HIV-1 JRCSF envelope glycoprotein (Env) on pseudovirus (HIV-1 isolate JRCSF (clade B)) (UniProt P20871)
[13] = target: HIV-1 MGRM-A-010 envelope glycoprotein (Env) on pseudovirus (HIV-1 isolate MGRM-A-010 (clade A))
[14] = target: HIV-1 MGRM-C-026 envelope glycoprotein (Env) on pseudovirus (HIV-1 isolate MGRM-C-026 (clade C))
[15] = target: HIV-1 MGRM-C-027 envelope glycoprotein (Env) on pseudovirus (HIV-1 isolate MGRM-C-027 (clade C))
[16] = target: HIV-1 Env of isolate MGRM-F1-004 (HIV-1)
[17] = target: HIV-1 Env of isolate MGRM-F1-010 (HIV-1)
[18] = target: HIV-1 Env of isolate MGRM-F1-012 (HIV-1)
[19] = target: HIV-1 Env of pseudovirus MGRM-AE-007 (subtype AE) (HIV-1)
[20] = target: HIV-1 Env of pseudovirus MGRM-AG-003 (subtype AG) (HIV-1)
[21] = target: HIV-1 Env of pseudovirus MGRM-AG-006 (subtype AG) (HIV-1)
[22] = target: HIV-1 Env of pseudovirus MGRM-AG-011 (subtype AG) (HIV-1)
[23] = target: HIV-1 Env of isolate AC10 (clade B pseudovirus) (HIV-1)
[24] = target: HIV-1 Env of isolate Du172 (clade C pseudovirus) (HIV-1)
[25] = target: MuLV envelope protein (control pseudovirus) (MuLV)
[26] = target: HIV-1 Env of isolate APV13 (HIV-1)
[27] = target: HIV-1 Env of isolate MG RM-D-001 (clade D), on pseudovirus (HIV-1)
[28] = target: HIV-1 Env of isolate MG RM-D-021 (clade D), on pseudovirus (HIV-1)
[29] = target: HIV-1 Env of isolate MG RM-D-022 (clade D), on pseudovirus (HIV-1)
[30] = target: HIV-1 Env of isolate MGRM-Chronic-B-001 (HIV-1)
[31] = target: HIV-1 Env of isolate MGRM-F1-014 (clade F), on pseudovirus (HIV-1)
[32] = target: HIV-1 Env of isolate MGRM-F1-017 (clade F pseudovirus) (HIV-1)
[33] = target: HIV-1 Env of isolate MGRM-F1-022 (clade F pseudovirus) (HIV-1)
[34] = target: HIV-1 Env of isolate MGRM-F1-023 (clade F pseudovirus) (HIV-1)
[35] = target: HIV-1 Env of pseudovirus MGRM-A-008 (subtype A) (HIV-1)

Chain of 1443_C16 (PG16) (TCN-116) (antibody) (VH): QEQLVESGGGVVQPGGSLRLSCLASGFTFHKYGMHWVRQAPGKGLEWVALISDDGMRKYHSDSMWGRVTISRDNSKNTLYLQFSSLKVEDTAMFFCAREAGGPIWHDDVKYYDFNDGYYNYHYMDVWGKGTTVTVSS
Chain of 1443_C16 (PG16) (TCN-116) (antibody) (VL): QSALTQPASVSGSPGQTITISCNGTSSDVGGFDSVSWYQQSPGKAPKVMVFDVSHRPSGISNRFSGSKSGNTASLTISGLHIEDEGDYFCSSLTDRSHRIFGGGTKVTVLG

In the case of 4858_P08 (PGT-123) (antibody), the Primary Neutralization Index (B cell culture supernatant) [1] is reported as 1.1.
In the case of 4877_D15 (PGT-122) (antibody), the Neutralization by PGT-122, IC50 [2] is reported as 0.191 mg/L, the Neutralization by PGT-122, IC80 [2] is reported as 0.931 mg/L and the Neutralization by PGT-122, IC90 [2] is reported as 2.1 mg/L. The Neutralization by PGT-122, IC95 [2] was 3.88 mg/L, the Neutralization by PGT-122, IC50 [3] was 1.46 mg/L and the Neutralization by PGT-122, IC80 [3] was 6.58 mg/L. It also gave a Neutralization by PGT-122, IC90 [3] greater than 10 mg/L, a Neutralization by PGT-122, IC95 [3] greater than 10 mg/L and a Neutralization by PGT-122, IC50 (HIV-1 JRFL Env (HIV-1)) of 0.0471 mg/L. For the same substance, the Neutralization by PGT-122, IC80 (HIV-1 JRFL Env (HIV-1)) was 0.166 mg/L, the Neutralization by PGT-122, IC90 (HIV-1 JRFL Env (HIV-1)) was 0.342 mg/L and the Neutralization by PGT-122, IC95 (HIV-1 JRFL Env (HIV-1)) was 0.659 mg/L. The Neutralization by PGT-122, IC50 [4] was 1.68 mg/L, the Neutralization by PGT-122, IC80 [4] was greater than 10 mg/L and the Neutralization by PGT-122, IC90 [4] was greater than 10 mg/L. For the same substance, the Neutralization by PGT-122, IC95 [4] was greater than 10 mg/L, the Neutralization by PGT-122, IC50 [5] was 0.0388 mg/L and the Neutralization by PGT-122, IC80 [5] was 0.499 mg/L. The Neutralization by PGT-122, IC90 [5] was greater than 10 mg/L and the Neutralization by PGT-122, IC95 [5] was greater than 10 mg/L.
In the case of 5123_A06 (PGT-125) (antibody), the Neutralization by PGT-125, IC50 [6] is reported as greater than 10 mg/L, the Neutralization by PGT-125, IC80 [6] is reported as greater than 10 mg/L and the Neutralization by PGT-125, IC90 [6] is reported as greater than 10 mg/L. The Neutralization by PGT-125, IC95 [6] was greater than 10 mg/L, the Neutralization by PGT-125, IC50 [7] was 0.0137 mg/L and the Neutralization by PGT-125, IC80 [7] was 0.0494 mg/L. It also gave a Neutralization by PGT-125, IC90 [7] of 0.106 mg/L, a Neutralization by PGT-125, IC95 [7] of 0.216 mg/L and a Neutralization by PGT-125, IC50 [8] of 0.0128 mg/L. It also gave a Neutralization by PGT-125, IC80 [8] of 0.0414 mg/L, a Neutralization by PGT-125, IC90 [8] of 0.0821 mg/L and a Neutralization by PGT-125, IC95 [8] of 0.154 mg/L. For the same substance, the Neutralization by PGT-125, IC50 [9] was 7.31 mg/L, the Neutralization by PGT-125, IC80 [9] was greater than 10 mg/L and the Neutralization by PGT-125, IC90 [9] was greater than 10 mg/L. For the same substance, the Neutralization by PGT-125, IC95 [9] was greater than 10 mg/L, the Neutralization by PGT-125, IC50 [10] was 0.0359 mg/L and the Neutralization by PGT-125, IC80 [10] was 0.133 mg/L. It also gave a Neutralization by PGT-125, IC90 [10] of 0.288 mg/L and a Neutralization by PGT-125, IC95 [10] of 0.597 mg/L.
In the case of 1496_C09 (PG9) (TCN-109) (antibody), the neutralization IC50 [11] is reported as 0.103 mg/L, the neutralization IC80 [11] is reported as 0.448 mg/L and the neutralization IC90 [11] is reported as 1.07 mg/L. It also gave a neutralization IC95 [11] of 2.43 mg/L, a neutralization IC50 [12] of 0.0048 mg/L and a neutralization IC80 [12] of 0.0181 mg/L. It also gave a neutralization IC90 [12] of 0.0391 mg/L, a neutralization IC95 [12] of 0.0798 mg/L and a neutralization IC50 [13] of 0.0375 mg/L. The neutralization IC80 [13] was 0.121 mg/L, the neutralization IC90 [13] was 0.242 mg/L and the neutralization IC95 [13] was 0.456 mg/L. It also gave a neutralization IC50 [14] of 0.113 mg/L and a neutralization IC50 [15] of 2.45 mg/L.
VRC01 (antibody) gave an IC50 [16] of 0.305 mg/L, an IC50 [17] of 0.097 mg/L and an IC50 [18] of 0.488 mg/L. The IC50, pseudovirus neutralization [19] was 0.835 mg/L, the IC50, pseudovirus neutralization [20] was 0.043 mg/L and the IC50, pseudovirus neutralization [21] was 0.344 mg/L. For the same substance, the IC50, pseudovirus neutralization [22] was 0.084 mg/L.
With 1443_C16 (PG16) (TCN-116) (antibody) the IC50 (neutralization, TZM-bl pseudovirus assay) [23] was less than 0.01 mg/L, the IC50 (neutralization, TZM-bl pseudovirus assay) [24] was less than 0.01 mg/L and the IC50 (neutralization, TZM-bl pseudovirus assay) [25] was greater than 25 mg/L.
With PGV04 (antibody) the IC50 (µg/mL), pseudovirus neutralization [26] was 1.23 µg/mL, the IC50 (µg/mL), pseudovirus neutralization [27] was greater than 50 µg/mL and the IC50 (µg/mL), pseudovirus neutralization [28] was greater than 50 µg/mL. It also gave an IC50 (µg/mL), pseudovirus neutralization [29] greater than 50 µg/mL, an IC50 (µg/mL), pseudovirus neutralization [30] of 0.048 µg/mL and an IC50 (µg/mL), pseudovirus neutralization [31] of 0.02 µg/mL. The IC50 (µg/mL), pseudovirus neutralization [32] was 2.38 µg/mL, the IC50 (µg/mL), pseudovirus neutralization [33] was 0.072 µg/mL and the IC50 (µg/mL), pseudovirus neutralization [34] was 0.171 µg/mL. It also gave an IC50, pseudovirus neutralization [35] of 0.555 mg/L.

Source: patent publication US20250320281A1
